The target of this assay is T1, Recombinant human CD38 protein (R&D, Catalog 2404-AC-010) (human, UniProt P28907 43-300).
T1 construct: In the MST assay the protein was labeled with NT647 (red-maleimide kit) and used at 5 nM; also called purified CD38 protein; purified human CD38 protein
As to the kind of experiment: MST, NT647-labeled recombinant human CD38 at 5 nM, peptide titrated, 37 C. As for the experimental part: Microscale thermophoresis (MST) assays determined the binding affinity of synthesized peptides to purified CD38 protein and was performed using the Monolith NT.115 (Nanotemper Technologies, Munich, Germany). […] Recombinant human CD38 protein (R&D, Catalog 2404-AC-010, Minneapolis, MN) was labeled with NT647 (Protein labeling kit red-maleimide, Nanotemper Technologies, Germany) and subsequently diluted to 5 nM in MST-2 buffer (50 mM Tris-HCl, pH 7.4, 150 mM NaCl, 10 mM MgCl₂, 2% DMSO, and 0.1% Tween-20). Fluorescence was assessed in MST-2 buffer. Samples were loaded into NT.115 standard capillaries, and analysis was performed at 37° C., 10% LED power, and 40% MST power. The Kd values were calculated from fragment concentration-dependent changes in normalized fluorescence (Fraction Bound) of different CD38 peptides based on the law of mass action using the MO Affinity Analysis v2.3 software.

For FSRDWTSGGSK (N-terminal acetyl (AC); C-terminal amide (NH2)) [AC-SL028-GGS (AC-Phe-Ser-Arg-Asp-Trp-Thr-Ser-Gly-Gly-Ser-Lys-NH2)], the dissociation constant (Kd) (as a rule, the equilibrium constant for the complex coming apart) is 243 nM. The figure for H-KGGSFSRDWTS-NH2 (Synthetic peptide, high score cluster B) [GGS-SL028 (H-Lys-Gly-Gly-Ser-Phe-Ser-Arg-Asp-Trp-Thr-Ser-NH2)] is 82.6 nM.
